Measurements reported in patent publication US7078038 (INSTITUT DE RECHERCHE POUR LE DEVELOPPEMENT I R D, dated 2006).

Target: T1, W338S gp120 (rgp120 of the HXB2 clone of HIV-IIIB with the W338S mutation) (HIV-1 (HXB2 clone of HIV-IIIB), UniProt P04578 33-511)
T1 construct: domain: gp120; Position counted in HxBc2 numbering; also called muted gp120; mutant gp120
Assay: FACS on CEM cells: no labelling by anti-CXCR4 12GS after incubation with gp120

B1: CXCR4 receptor on the cell surface (receptor)
chain: MEGISIYTSDNYTEEMGSGDYDSMKEPCFREENANFNKIFLPTIYSIIFLTGIVGNGLVILVMGYQKKLRSMTDKYRLHLSVADLLFVITLPFWAVDAVANWYFGNFLCKAVHVIYTVNLYSSVLILAFISLDRYLAIVHATNSQRPRKLLAEKVVYVGVWIPALLLTIPDFIFANVSEADDRYICDRFYPNDLWVVVFQFQHIMVGLILPGIVILSCYCIIISKLSHSKGHQKRKALKTTVILILAFFACWLPYYIGISIDSFILLEIIKQGCEFENTVHKWISITEALAFFHCCLNPILYAFLGAKFKTSAQHALTSVSRGSSLKILSKGKRGGHSSVSTESESSSFHSS
notes: whole, on cells; also called CXCR4 co-receptor; CEM cells CD4+/CXCR4+
binding result: binds
